In paper PMC2833306 one finds inhibition of binding compared to Bs-Dd data, which are given here for one substance.

In this assay the target is integrins on HS deficient CHO-2241 cells (Chinese hamster (endogenous in CHO-2241)). Nature of the assay: flow cytometry on cells; CHO-2241 cells (HS deficient) in PBS 1 mM CaCl2, 1 h at 4°C with 15 ug/mL particles; bound particles detected with rabbit serum against the Ad3 penton base and FITC secondary antibody. (In general: A flow cytometer gives signals particle by particle.)

“MutAQAS dodecahedron (HAd3 penton base, KQKR to AQAS) (from UniProt Q2Y0H9 1-544) (complex)” showed an inhibition of binding compared to Bs-Dd of 80%.
